Data as given in paper PMC3416671, “Neuronal RING finger protein 11 (RNF11) regulates canonical NF-κB signaling” (Journal of Neuroinflammation, 2012).

B1: endogenous Itch (murine primary cortical neurons) (natural protein)
chain: not shown
notes: E3 ligase Itch (also known as AIP4), endogenous in primary cortical neurons of C57BL/6 mice; also called AIP4; source: endogenous, murine primary cortical neuron lysate
B2: endogenous A20 (murine primary cortical neurons) (natural protein, UniProt Q60769 1-775, looked up)
chain: MAEQLLPQALYLSNMRKAVKIRERTPEDIFKPTNGIIYHFKTMHRYTLEMFRTCQFCPQFREIIHKALIDRSVQASLESQKKLNWCREVRKLVALKTNGDGNCLMHAACQYMWGVQDTDLVLRKALCSTLKETDTRNFKFRWQLESLKSQEFVETGLCYDTRNWNDEWDNLVKMASADTPAARSGLQYNSLEEIHIFVLSNILRRPIIVISDKMLRSLESGSNFAPLKVGGIYLPLHWPAQECYRYPIVLGYDSQHFVPLVTLKDSGPELRAVPLVNRDRGRFEDLKVHFLTDPENEMKEKLLKEYLIVMEIPVQGWDHGTTHLINAAKLDEANLPKEINLVDDYFELVQHEYKKWQENSDQARRAAHAQNPLEPSTPQLSLMDIKCETPNCPFFMSVNTQPLCHECSERRQKNQSKLPKLNSKLGPEGLPGVGLGSSNWSPEETAGGPHSAPPTAPSLFLFSETTAMKCRSPGCPFTLNVQHNGFCERCHARQINASHTADPGKCQACLQDVTRTFNGICSTCFKRTTAEPSSSLTSSIPASCHQRSKSDPSQLIQSLTPHSCHRTGNVSPSGCLSQAARTPGDRAGTSKCRKAGCMYFGTPENKGFCTLCFIEYRENKQSVTASEKAGSPAPRFQNNVPCLGRECGTLGSTMFEGYCQKCFIEAQNQRFHEARRTEEQLRSSQHRDMPRTTQVASRLKCARASCKNILACRSEELCMECQHLSQRVGSVAHRGEPTPEEPPKQRCRAPACDHFGNAKCNGYCNECYQFKQMYG
notes: A20 (TNF-α-induced protein 3, TNFAIP3), endogenous in primary cortical neurons of C57BL/6 mice; also called TNFAIP3; source: endogenous, murine primary cortical neuron lysate

Target: T1, endogenous RNF11 (murine primary cortical neurons) (mouse (endogenous in primary cortical …, UniProt Q9QYK7 1-154))
T1 construct: RING finger protein 11 (RNF11), endogenous in primary cortical neurons of C57BL/6 mice; also called RING finger protein 11; source: endogenous, murine primary cortical neuron lysate
T1 sequence (looked up): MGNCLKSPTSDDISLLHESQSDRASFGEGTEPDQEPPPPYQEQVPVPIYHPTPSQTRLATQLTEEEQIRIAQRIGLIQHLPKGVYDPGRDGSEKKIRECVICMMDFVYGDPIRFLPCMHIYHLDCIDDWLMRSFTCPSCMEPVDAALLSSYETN
Test: co-IP; lysates of murine primary cortical neurons stimulated with 10 ng/ml TNF-α for 0 or 30 minutes; IP with RNF11 antibody; control IP with antibody omitted; immunoblot with anti-A20 and Itch; densitometry normalised to input, 0 minutes set at 100%
Details: partners not purified

Binder	Itch immunoreactivity in RNF11 immunoprecipitates after 30 minutes of TNF-α, relative to 0 minutes (100%)	A20 immunoreactivity in RNF11 immunoprecipitates after 30 minutes of TNF-α, relative to 0 minutes (100%)
B1	166%	–
B2	–	129%
